Experimental data reported in patent publication US20210015870A1 (PROMAB BIOTECHNOLOGIES, published 2021).

How the values were obtained:
[1] = target: T1, BCMA peptide (BCMA extracellular domain protein with a C-terminal deletion of 37 residues) (human); experiment: ELISA, plate coated with BCMA peptide, HRP anti-mouse IgG and TMB, OD450
T1 construct: also called BCMA shorter peptide; shorter peptide from BCMA extracellular domain
T1 peptide: MLQMAGQCSQNEYFDSL
Protocol: We generated mouse monoclonal anti-human BCMA monoclonal antibody 4C8A using hybridoma. Dilutions of the antibody were incubated in ELISA plates coated with BCMA protein, or BCMA peptide (BCMA extracellular domain protein with a C-terminal deletion of 37 residues), or an irrelevant control CD363 protein. Binding of BCMA mAb 4C8A to the coated protein was detected with HRP-conjugated anti-mouse IgG and TMB substrate. […] The binding of BCMA to BCMA protein was in a dose-dependent manner: decreased with […] in contrast to negative controls (FIG. 4).

[2] = target: T2, CD18 protein fused with human Fc protein, expressed in transfected 293 cells (UniProt P05107 23-700, limits assumed); experiment: immunostaining of transfected 293 cells
T2 construct: Negative control for immunostaining; also called control CD18 protein; CD18-human Fc protein; not shown: human Fc
Text: We transfected 293 cells either with BCMA (CD269)-human Fc protein or control CD18 protein fused with human Fc protein and performed immunostaining analysis. […] By IHC, clone 4C8A bound to RPMI8226 cells, myeloma primary tumors and normal human liver, but not to any other normal or other type cancer human tissues, confirming the specificity of BCMA expression. BCMA antibody detected also BCMA in primary multiple myeloma tumors.

[3] = target: T3, BCMA protein (recombinant human BCMA) (human, UniProt Q02223 1-54); experiment: BLItz biolayer interferometry, anti-mouse IgG biosensor, antibody at 100, 50 and 25 nM
T3 construct: also called BCMA antigen; BCMA recombinant protein
T3 sequence: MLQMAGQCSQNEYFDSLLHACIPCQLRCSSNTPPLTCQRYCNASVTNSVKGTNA
Protocol: The BCMA 4C8A antibody was diluted to 100, 50 and 25 nM and added to the anti-mouse IgG biosensor (ForteBio Corp., Menlo Park, Calif.). After 5 minutes, the biosensor was rinsed free of unbound antibody. Binding was monitored by the BLItz system (ForteBio), and the antibody's dissociation constant was determined with the BLItz software.

T2 sequence (P05107 23-700 limits assumed): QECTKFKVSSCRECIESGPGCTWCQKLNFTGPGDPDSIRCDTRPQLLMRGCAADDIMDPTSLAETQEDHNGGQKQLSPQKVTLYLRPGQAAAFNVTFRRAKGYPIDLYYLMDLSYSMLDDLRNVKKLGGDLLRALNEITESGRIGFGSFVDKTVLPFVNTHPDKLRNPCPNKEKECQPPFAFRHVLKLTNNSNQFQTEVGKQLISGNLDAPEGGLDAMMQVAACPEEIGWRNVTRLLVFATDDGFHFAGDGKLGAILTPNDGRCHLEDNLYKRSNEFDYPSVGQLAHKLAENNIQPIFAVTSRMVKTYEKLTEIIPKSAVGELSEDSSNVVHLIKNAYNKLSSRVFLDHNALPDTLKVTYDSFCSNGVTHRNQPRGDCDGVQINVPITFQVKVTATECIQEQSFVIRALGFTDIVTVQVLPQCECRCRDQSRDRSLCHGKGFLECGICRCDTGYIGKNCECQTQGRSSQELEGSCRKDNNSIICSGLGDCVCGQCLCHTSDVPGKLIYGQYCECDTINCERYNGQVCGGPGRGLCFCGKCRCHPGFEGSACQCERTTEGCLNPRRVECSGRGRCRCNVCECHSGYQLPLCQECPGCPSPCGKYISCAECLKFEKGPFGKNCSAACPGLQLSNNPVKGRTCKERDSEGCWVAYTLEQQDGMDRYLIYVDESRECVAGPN

B1: mouse monoclonal anti-human BCMA antibody clone 4C8A (antibody, mouse IgG1, V domains shown)
VH: VQLQQSGPELVKPGASVKMSCKASGYTFTSYVMHWVKQKPGQGLEWIGYIIPYNDATKYNEKFKGKATLTSDKSSSTAYMELSSLTSEDSAVYYCARYNYDGYFDVWGAGTTVTVSS
VL: DIVMTQSPATLSVTPGDRVSLSCRASQSISDYLHWYQQKSHESPRLLIKYASQSISGIPSRFSGSGSGSDFTLSINSVEPEDVGVYYCQNGHSFPPTFGGGTKLEIK
notes: also called BCMA mAb 4C8A; BCMA 4C8A antibody
[1]
  binding result: no binding
[2]
  binding result: no binding
[3]
  Kd: ~2.8 nM
